Among the data in article PMC9584953 are binding values, retold here.

What all share (assay): EMSA
Common to all, as to details: EMSA: 50 mM Tris-HCl pH 7.5, 50 mM KCl, 5 mM CaCl2, 5% glycerol, 0.0025% NP-40, 0.8 ug poly(dI-dC), room temperature 30 min

In data set [1] the test system is T1, OmpR A136D A136D (Salmonella (strain not given in material)), ORF:d8521a76.
T1 sequence: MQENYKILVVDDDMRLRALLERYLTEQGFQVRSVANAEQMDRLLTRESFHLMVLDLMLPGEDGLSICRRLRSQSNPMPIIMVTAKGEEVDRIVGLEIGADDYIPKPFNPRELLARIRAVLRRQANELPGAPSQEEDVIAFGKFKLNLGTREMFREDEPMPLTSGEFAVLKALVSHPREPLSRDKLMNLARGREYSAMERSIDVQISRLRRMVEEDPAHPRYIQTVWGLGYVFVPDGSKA

The subject of data set [2] is T2, OmpR I138D I138D (Salmonella (strain not given in material)), ORF:d8521a76.
T2 sequence: T1 sequence with D136A, I138D

The subject of data set [3] is T3, OmpR R182D R182D (Salmonella (strain not given in material)), ORF:d8521a76.
T3 sequence: T1 sequence with D136A, R182D

Data set [4] deals with T4, OmpR Y230D Y230D (Salmonella (strain not given in material)), ORF:d8521a76.
T4 sequence: T1 sequence with D136A, Y230D

For data set [5], the system named is T5, OmpR D55A D55A (Salmonella (strain not given in material)), ORF:d8521a76.
T5 sequence: T1 sequence with D55A, D136A

Where a chain is given by its changes, count along the chain named.

On to “CATCTTTCCATTCAAACTAACGTTTCGCTACCGTGAAAGTGCTACAAAGATAAAGATTTGGTTTCAAAAGGAAAT (double strand) [PompF (F2 and F3 OmpR sites)]”, for which the binding result in data set [1] is on record as “binds”; in data set [2], “binds”; in data set [3], “binds”; in data set [4] it was “binds”; in data set [5], “binds more weakly”.
